Experimental data reported in IntAct's records for PubMed 29039417.

B1: Protein PTHB1 (Homo sapiens), Q3SYG4 (parent)
chain: MSLFKARDWWSTILGDKEEFDQGCLCLANVDNSGNGQDKIIVGSFMGYLRIFSPHPAKTGDGAQAEDLLLEVDLRDPVLQVEVGKFVSGTEMLHLAVLHSRKLCVYSVSGTLGNVEHGNQCQMKLMYEHNLQRTACNMTYGSFGGVKGRDLICIQSMDGMLMVFEQESYAFGRFLPGFLLPGPLAYSSRTDSFLTVSSCQQVESYKYQVLAFATDADKRQETEQQKLGSGKRLVVDWTLNIGEQALDICIVSFNQSASSVFVLGERNFFCLKDNGQIRFMKKLDWSPSCFLPYCSVSEGTINTLIGNHNNMLHIYQDVTLKWATQLPHIPVAVRVGCLHDLKGVIVTLSDDGHLQCSYLGTDPSLFQAPNVQSRELNYDELDVEMKELQKIIKDVNKSQGVWPMTEREDDLNVSVVVSPNFDSVSQATDVEVGTDLVPSVTVKVTLQNRVILQKAKLSVYVQPPLELTCDQFTFEFMTPDLTRTVSFSVYLKRSYTPSELEGNAVVSYSRPTDRNPDGIPRVIQCKFRLPLKLICLPGQPSKTASHKITIDTNKSPVSLLSLFPGFASQSDDDQVNVMGFHFLGGARITVLASKTSQRYRIQSEQFEDLWLITNELILRLQEYFEKQGVKDFACSFSGSIPLQEYFELIDHHFELRINGEKLEELLSERAVQFRAIQRRLLARFKDKTPAPLQHLDTLLDGTYKQVIALADAVEENQGNLFQSFTRLKSATHLVILLIALWQKLSADQVAILEAAFLPLQEDTQELGWEETVDAAISHLLKTCLSKSSKEQALNLNSQLNIPKDTSQLKKHITLLCDRLSKGGRLCLSTDAAAPQTMVMPGGCTTIPESDLEERSVEQDSTELFTNHRHLTAETPRPEVSPLQGVSE
partner: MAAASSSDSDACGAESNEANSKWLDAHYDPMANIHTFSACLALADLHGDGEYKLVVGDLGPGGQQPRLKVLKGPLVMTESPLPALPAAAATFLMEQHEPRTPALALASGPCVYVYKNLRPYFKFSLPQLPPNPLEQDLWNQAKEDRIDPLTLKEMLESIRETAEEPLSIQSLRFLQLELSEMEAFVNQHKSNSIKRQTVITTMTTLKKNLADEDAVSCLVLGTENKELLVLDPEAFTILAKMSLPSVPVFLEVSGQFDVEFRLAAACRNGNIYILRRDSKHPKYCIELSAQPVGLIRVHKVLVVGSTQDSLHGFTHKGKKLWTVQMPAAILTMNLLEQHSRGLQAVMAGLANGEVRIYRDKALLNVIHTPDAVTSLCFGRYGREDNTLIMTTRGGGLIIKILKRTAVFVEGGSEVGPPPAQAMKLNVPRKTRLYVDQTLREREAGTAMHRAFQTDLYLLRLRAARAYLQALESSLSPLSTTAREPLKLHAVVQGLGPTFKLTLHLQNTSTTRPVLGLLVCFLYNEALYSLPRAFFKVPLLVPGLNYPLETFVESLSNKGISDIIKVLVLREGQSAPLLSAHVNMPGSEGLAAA

Variants of: B1
Conditions: with bbs1_human BBS1, Q8NFJ9

Row | Variant | effect of a mutation on the interaction
1 | W741A | with no effect
2 | W741S | disrupting interaction strength
3 | W741K | with no effect
4 | W741E | with no effect
5 | H778E | disrupting interaction strength
6 | H778K | with no effect
7 | H778A | with no effect
8 | L740E | with no effect
9 | L740K | with no effect
10 | L740A | with no effect
11 | S785A | with no effect
12 | S785K | with no effect
13 | S785E | with no effect
14 | E761K | with no effect
15 | E761A | with no effect
16 | D762E | with no effect
17 | D762A | with no effect
18 | D762K | with no effect
19 | A774E | with no effect
20 | A774K | with no effect
21 | L733A | disrupting interaction strength
22 | L733E | with no effect

Row | Variant | effect of a mutation on the interaction
23 | L733K | with no effect
24 | L759A | with no effect
25 | L759E | with no effect
26 | L759K | with no effect
27 | S745A | with no effect
28 | S745K | with no effect
29 | S745E | with no effect
30 | V772A | with no effect
31 | V772K | with no effect
32 | V772E | with no effect
33 | F756A | with no effect
34 | F756E | with no effect
35 | F756K | with no effect
36 | Q764K | with no effect
37 | Q764A | with no effect
38 | Q764E | with no effect
39 | I738K | disrupting interaction strength
40 | I738E | with no effect
41 | I738A | disrupting interaction strength
42 | I735K | disrupting interaction strength
43 | I735A | with no effect
44 | I735E | with no effect

Row | Variant | effect of a mutation on the interaction
45 | N794A | with no effect
46 | N794E | with no effect
47 | K786A | with no effect
48 | K786E | with no effect
49 | L766A | with no effect
50 | L766E | with no effect
51 | L766K | with no effect
52 | A739E | with no effect
53 | A739K | with no effect
54 | S777E | with no effect
55 | S777A | with no effect
56 | S777K | with no effect
57 | T763E | with no effect
58 | T763K | with no effect
59 | T763A | with no effect
60 | H732K | with no effect
61 | L784E | with no effect
62 | L784K | with no effect
63 | L784A | with no effect
64 | L736K | with no effect
65 | L736A | with no effect
66 | L736E | with no effect

Row | Variant | effect of a mutation on the interaction
67 | L757A | with no effect
68 | L757E | with no effect
69 | L757K | with no effect
70 | L757I | disrupting interaction strength
71 | W768K | with no effect
72 | W768A | with no effect
73 | W768E | with no effect
74 | A775K | with no effect
75 | A775T | disrupting interaction strength
76 | A775E | with no effect
77 | V749K | with no effect
78 | V749A | with no effect
79 | V749E | disrupting interaction strength
80 | L737K | with no effect
81 | L737A | with no effect
82 | L737E | with no effect
83 | V734E | with no effect
84 | V734A | with no effect
85 | V734G | disrupting interaction strength
86 | V734K | with no effect
87 | L780K | with no effect
88 | L780A | with no effect

Variants of: B1
Conditions: with bbs1_human BBS1, Q8NFJ9
Remark: another data set of the same source

Row | Variant | effect of a mutation on the interaction
89 | S745E | disrupting interaction strength
